The results in this text go back to publication PMC5739345, “Identification of iridoid synthases from Nepeta species: Iridoid cyclization does not determine nepetalactone stereochemistry” (Phytochemistry, 2018).

Substrate in series [1]: NC(=O)C1=CN([C@@H]2O[C@H](COP(=O)(O)OP(=O)(O)OC[C@H]3O[C@@H](n4cnc5c(N)ncnc54)[C@H](OP(=O)(O)O)[C@@H]3O)[C@@H](O)[C@H]2O)C=CC1
Nature of the series: purified protein. In kind it is biochemical, Nepeta racemosa. Conditions: 50 μM 8-oxogeranial, 200 mM MOPS pH 7.0, 100 mM NaCl, 1-1.4% THF, 25 °C, 5 nM enzyme, varied: cofactor.

Substrate in series [2]: C/C(C=O)=C\CC/C(C)=C/C=O
Nature of the series: purified protein. In kind it is biochemical, Nepeta racemosa. Particulars: 75 μM NADPH, 200 mM MOPS pH 7.0, 100 mM NaCl, 1-1.4% THF, 25 °C, 5 nM enzyme.

B1: NmISY2 (Nepeta racemosa) (protein)
chain: MSLSWWRAGAAKKRMDDDESLLVKQQQQQCVALIVGVTGLVGNSLAEMLPLPDTPGGPWKVYGVARRARPSWNEDQPMTYISCDVSNTGEVEAKLSPLSDVTHIFYATWTSRSTEEENCEANGKMLKNVLDAMIPNCPNLKHICLQTGRFHYVASVVDWKINGSHDTPLTEDLPRLKTNNFYYTQEDILLEEVKRKEGLTWSVHRPGTIFGFSPYSMMNLVGTLCVYAAICKQEGAVLRFPGCKGAWDGHSDCADADLIAEQQIWAALDPHAKNQAFNVSNGDLFKWKHLWKVLADQFGVECGDYEEGQQLRLQDVMKDKGPVWDKIVAENGLSNTKLEDVGKWWFSDTILWNECRLDSMNKSKEHGFLGFRNSKNCFLYWIHKVKAYNLVPSTYT
notes: N-terminal His-tag (pOPINF), E. coli soluBL21 (DE3), Ni-NTA and gel filtration; not fully homogeneous; dimer fraction; Phe at Lys146, Ala at Gly150 positions (natural)
With B1, in the series “purified protein [1]”, the Km was found to be 26.2 ± 5.1 µM and the kcat came to 0.84 ± 0.06 s⁻¹. Also, in “purified protein [2]”, the Michaelis constant (Km) turned out to be 7.3 ± 0.7 µM and the kcat is 0.60 ± 0.02 s⁻¹.
